Results from PMC3422339, “Interactions and CCAAT-Binding of Arabidopsis thaliana NF-Y Subunits”.

Biological target: mouse NF-YA minimal domain;mouse NF-YB HFD;mouse NF-YC HFD (mouse;mouse;mouse, UniProt P23708-2;P63139;P70353 233-303;49-141;27-120, ||)
Assay: agarose EMSA; positive control; 32P EMSA: 20 mM Hepes pH 7.9, 50 mM NaCl, 5% glycerol, 5 mM MgCl2, 5 mM b-ME, 20 C; Cy5 agarose EMSA: 20 nM DNA, 20 mM Tris pH 7.5, 50 mM NaCl, 0.5 mM EDTA, 5 mM MgCl2, 2.5 mM DTT, 0.1 mg/ml BSA, 5% glycerol, 23 C
Conditions: protein: recombinant;recombinant;recombinant; tags: C-terminal His cleaved by thrombin;6His in dimer; untagged in purified trimer;; copies: 1;1;1; label: 5'-Cy5; blunt

Sequence of mouse NF-YA minimal domain;mouse NF-YB HFD;mouse NF-YC HFD (P23708 261-331, chain 1 of 3): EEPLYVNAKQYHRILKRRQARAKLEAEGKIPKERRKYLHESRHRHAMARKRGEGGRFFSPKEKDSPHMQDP
Sequence of mouse NF-YA minimal domain;mouse NF-YB HFD;mouse NF-YC HFD (P63139 49-141, chain 2 of 3): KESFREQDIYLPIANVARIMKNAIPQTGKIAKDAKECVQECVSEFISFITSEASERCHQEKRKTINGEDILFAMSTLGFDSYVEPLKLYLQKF
Sequence of mouse NF-YA minimal domain;mouse NF-YB HFD;mouse NF-YC HFD (P70353 27-120, chain 3 of 3): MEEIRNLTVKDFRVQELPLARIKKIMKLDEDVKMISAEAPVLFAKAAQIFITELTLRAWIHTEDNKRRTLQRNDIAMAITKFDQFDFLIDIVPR

B1: HSP70 CCAAT 31 bp probe (dsDNA)
DNA 1: CTTCTGAGCCAATCACCGAGCTCGATGAGGC
DNA 2: GCCTCATCGAGCTCGGTGATTGGCTCAGAAG
Question: Does B1 bind?
Answer: Result: binds
